Assay results published in patent US20230287095A1 (published 2023).
Like-named read-outs stand apart in the source and are kept apart here.

T1: human pro-EMAPII (human, UniProt Q12904 1-312)
T1 chain: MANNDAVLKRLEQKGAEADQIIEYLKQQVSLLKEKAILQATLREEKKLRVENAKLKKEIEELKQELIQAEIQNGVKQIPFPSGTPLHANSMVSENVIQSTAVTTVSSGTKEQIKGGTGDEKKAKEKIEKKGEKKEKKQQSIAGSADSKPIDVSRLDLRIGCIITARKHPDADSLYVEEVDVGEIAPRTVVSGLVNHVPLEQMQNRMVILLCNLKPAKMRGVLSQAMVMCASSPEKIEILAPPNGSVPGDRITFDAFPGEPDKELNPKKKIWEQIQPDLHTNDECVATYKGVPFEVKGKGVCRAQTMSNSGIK

B1: Rat parental (antibody, V domains shown)
VH: AVHLVESGGGFVQPTESLKISCAASGFTFSDAAMYWVRQAPGKGLEWVARIRTKPNNYATYYADSVKGRFTISRDDSKSMVYLQMDNLKTEDTAMYYCTSWSYDFDYWGQGVMVTVSS
VL: DIVMTQGALPNPVPSGESASITCQSSKSLLHSSGKTYLNWYLQRPGQSPHLLIYWMSTRASGVSDRLSGSGSGTDFTLKISSVEAEDVGVYYCQQFLEYPLTFGSGTKLEIK
B2: Chimeric Parental (antibody, V domains shown)
VH: B1 VH
VL: B1 VL

Assays:
Assay in all cases: ELISA
human pro-EMAPII [1] = biological target: T1, human pro-EMAPII
human pro-EMAPII [2] = biological target: T1, human pro-EMAPII
human pro-EMAPII [3] = biological target: T1, human pro-EMAPII
human pro-EMAPII [4] = biological target: T1, human pro-EMAPII

| Binder | EC50 (human pro-EMAPII [1]) [µg/mL] | EC50 (human pro-EMAPII [2]) [µg/mL] | EC50 (human pro-EMAPII [3]) [µg/mL] | EC50 (human pro-EMAPII [4]) [µg/mL] |
| --- | --- | --- | --- | --- |
| B1 | 3.39 | 3.39 | 3.6 | 3.6 |
| B2 | 0.329 | 0.329 | 0.361 | 0.361 |
